Results on 72 sequences are retold here after the supplement of paper PMC10567573.

The nature of the data set: protein stability index of a GFP-peptide fusion (GPS, HEK-293T) (PSI 1-6); higher = more stable.
[1] abbreviates: treatment: DMSO, c terminus: a fixed tail appended.
[2] abbreviates: treatment: MLN4924 1 uM, 8 h, c terminus: a fixed tail appended.
[3] abbreviates: treatment: DMSO, c terminus: native.
Where [4] appears, read: treatment: MLN4924 1 uM, 8 h, c terminus: native.

± gives the standard deviation.
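Note: 24-mer peptide tiles fused after GFP, lentivirally expressed, FACS-sorted into six equal bins by GFP/DsRed ratio, decoded by Illumina sequencing, PSI is the read-weighted mean bin number.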

As to SNPGPVPGSSSGPVLGSSSGAGHG [SPAG8], the protein stability index by setting is: under setting [1], 5.051 ± 0.027; under setting [2], 4.7 ± 0.35.

Regarding SNSCQDSTDTESNNEEQRSGLIYL [IKZF1], the protein stability index turned out to be 4.67 ± 0.27 under setting [1] and 4.735 ± 0.023 under setting [2].

As for SPGGTLMDLSERQEVSSVRSLSST [DLC1], the protein stability index runs as follows: under setting [1], 4.61 ± 0.24; under setting [2], 4.85 ± 0.2.

As to SPIKPGDIKRGIPNYEFKLGKITF [UFD1], the protein stability index was 2.65 ± 0.34 under setting [1] and 2.52 ± 0.39 under setting [2].

SPLCLIPMVTSPREEQQLLASTSK [KCTD13]: the protein stability index reads like this: under setting [1], 4.1 ± 0.29; under setting [2], 4.37 ± 0.06.

As to SPLEEKHDQCKCENLIMFQNLANE [MATN2], the protein stability index under setting [1] stood at 4.365 ± 0.004 and the protein stability index under setting [2] was determined as 4.05 ± 0.69.

For the sequence SPMYFFLASLSFIDTVYSTAFAPK [OR4A15], the protein stability index runs as follows: under setting [1], 3.01 ± 0.35; under setting [2], 2.92 ± 0.54.

As to SPQEDGQIMFDVEMHTSRDHSSQS [BNIP3L], the protein stability index reads like this: under setting [1], 5.21 ± 0.2; under setting [2], 5.21 ± 0.13.

For SQDALRVVSTSGEQMKVYKCEHCR [IKZF1], the protein stability index was determined as 4.29 ± 0.33 under setting [1] and 4.38 ± 0.3 under setting [2].

In the case of SQKLNFREHAKARVDHGAEIITQS [MAP2], the protein stability index was determined as 3.98 ± 0.28 under setting [1] and 4.34 ± 0.38 under setting [2].

As to SRIKGWWVFHHYVSTFLSGVMLTW [TMEM120A], the protein stability index reads like this: under setting [1], 2.55 ± 0.24; under setting [2], 2.37 ± 0.36.

Turning to SRISHLVLPVQPVSSIEEQGCLF [TOR1AIP2], the protein stability index was 2.63 ± 0.44 under setting [3] and 2.62 ± 0.22 under setting [4].

As for SRRFEAVGWWALLALVTLLSFATR [POMT2], the protein stability index stood at 2.29 ± 0.28 under setting [1] and 2.09 ± 0.33 under setting [2].

SSGRKWGDDAPKEEVDTGAVNLIE [INTS4] returned a protein stability index under setting [1] of 5.22 ± 0.6 and a protein stability index under setting [2] of 5.21 ± 0.13.

Take SSKFYDLFLMECEESPNGSEGACE [RHOBTB1]: the protein stability index is, setting by setting: under setting [1], 3.72 ± 0.74; under setting [2], 3.79 ± 0.1.

The sequence SSLFSVEANSSNSQKNEKALTNIQ [C8orf76] showed a protein stability index under setting [1] of 4.93 ± 0.2 and a protein stability index under setting [2] of 4.73 ± 0.21.

As to SSNFHINVEESVDGQVVSSHKREI [KRT15], the protein stability index was 4.7 ± 0.18 under setting [1] and 4.68 ± 0.18 under setting [2].

As to SSSGDLADLENEDIFPELDDILYH [DLC1], the protein stability index amounted to 4.77 ± 0.24 under setting [1] and 4.76 ± 0.2 under setting [2].

Consider SSTKPPKSRRKAALSSPRSRKNAT [INTS3], for which the protein stability index worked out at 4.89 ± 0.19 under setting [1] and 5.04 ± 0.14 under setting [2].

For SSTNFAMKRDVQEGQARCLAHLGR [C8orf76], the protein stability index is, setting by setting: under setting [1], 3.66 ± 0.058; under setting [2], 3.68 ± 0.28.

Turning to SSYFDSFQEAQIKRKARNEGRNRR [CDKL4], the protein stability index reads like this: under setting [1], 3.93 ± 0.76; under setting [2], 4.96 ± 0.35.

For STQMFQTKRCFRLAPTFSNLLLQP [SMG5], the protein stability index stood at 2.16 ± 0.4 under setting [1] and 2.12 ± 0.2 under setting [2].

In the case of STVTPVPGQEKGSALEGRADTTTG [EHMT1], the protein stability index was 5.51 ± 0.32 under setting [1] and 5.53 ± 0.24 under setting [2].

In the case of SVDIVSSHWDLNHTHPSACQGQRL [PLD5], the protein stability index reads like this: under setting [1], 3.64 ± 0.16; under setting [2], 3.82 ± 0.086.

Consider SVTGHTNIVEYLIQEQPGQEQVAG [FEM1A], for which the protein stability index is, setting by setting: under setting [1], 4.45 ± 0.073; under setting [2], 4.57 ± 0.17.

As to TAAGLMHTFNAHAATDITGFGILG [SEPHS2], the protein stability index is 2.43 ± 0.51 under setting [1] and 2.44 ± 0.074 under setting [2].

Sequence TAAMRCMCPLYDPNRQLWIELAPL [GAN] gave a protein stability index under setting [1] of 2.22 ± 0.51 and a protein stability index under setting [2] of 2.16 ± 0.55.

As for TADHRIYSYVVSRPQPRGLLGWGY [FAF2], the protein stability index reads like this: under setting [1], 2.16 ± 0.37; under setting [2], 2.21 ± 0.22.

On to TCPQCHRSLILDDRGLRGFPKNRV [TRIM9], for which the protein stability index is, setting by setting: under setting [1], 2.74 ± 0.22; under setting [2], 3.16 ± 0.41.

With TDAKKREALYAQDPSTGCYMYYFQ [KMT5A], the protein stability index under setting [1] is 2.48 ± 0.22 and the protein stability index under setting [2] came out at 2.68 ± 0.35.

As for TETDSLVSAQRERPRRRDGPEHAT [DVL3], the protein stability index by setting is: under setting [1], 5.24 ± 0.13; under setting [2], 5.33 ± 0.3.

Regarding TEYQKQLLAAQVQLQCSPAELQAE [FBF1], the protein stability index is, setting by setting: under setting [1], 4.39 ± 0.31; under setting [2], 4.3 ± 0.2.

Consider THLILHRDLKTQNILLDKHRMVVK [NEK8], for which the protein stability index turned out to be 2.78 ± 0.11 under setting [1] and 2.83 ± 0.17 under setting [2].

For TKLSLLAIHGYTVWAHNLIAIARL [FBXO33], the protein stability index reads like this: under setting [1], 3.19 ± 0.36; under setting [2], 3.22 ± 0.23.

In the case of TKRCFRLAPTFSNLLLQPTTNPHT [SMG5], the protein stability index is 2.41 ± 0.22 under setting [1] and 2.59 ± 0.29 under setting [2].

Take TKVVYLASETFNYSAIDRVKSRGK [PI4K2A]: the protein stability index was 2.85 ± 0.18 under setting [1] and 3.17 ± 0.31 under setting [2].

For TLIVVDASGLGLEITTQFLIYASY [SLC19A2], the protein stability index is, setting by setting: under setting [1], 3.32 ± 0.54; under setting [2], 3.32 ± 0.4.

Turning to TLQQFNIKLRPPGAEKPSWLEEQ [ARFIP2], the protein stability index is, setting by setting: under setting [3], 3.55 ± 0.34; under setting [4], 3.62 ± 0.35.

In the case of TLRPTDSQSHCYRTCFSPASDGSD [PCDHGC5], the protein stability index worked out at 3.93 ± 0.25 under setting [1] and 4.04 ± 0.28 under setting [2].

In the case of TLRSHLKSFSMAKGLNARMMRGLS [RAB40A], the protein stability index was 2.47 ± 0.19 under setting [1] and 2.78 ± 0.24 under setting [2].

For TLVSSGSGTMGAAKVTGEVLDILT [FLOT1], the protein stability index was determined as 2.97 ± 0.44 under setting [1] and 2.91 ± 0.49 under setting [2].

TLWDVFGANKEVQELLERGLLQLD [RSAD1] gave a protein stability index under setting [1] of 2.33 ± 0.25 and a protein stability index under setting [2] of 2.64 ± 0.11.

With TLWKHQFAWPFYQPVDAIKLNLPD [BRD3], the protein stability index is, setting by setting: under setting [1], 2.46 ± 0.63; under setting [2], 2.3 ± 0.13.

On to TMQLFSKQNPSRQEVTKLQQQVKT [FBXO28], for which the protein stability index worked out at 3.74 ± 0.2 under setting [1] and 3.75 ± 0.28 under setting [2].

Turning to TNFVSRYDPRFNSWIQLPPMQERR [KLHL14], the protein stability index reads like this: under setting [1], 3.22 ± 0.084; under setting [2], 3.34 ± 0.31.

In the case of TNFVVQVSVFIGVLIDLWKITKVM [CLPTM1], the protein stability index reads like this: under setting [1], 3.1 ± 0.67; under setting [2], 3.39 ± 0.72.

As for TPMATKRSGAGVALLNDHIYVVGG [KLHL12], the protein stability index reads like this: under setting [1], 2.91 ± 0.26; under setting [2], 2.71 ± 0.31.

For the sequence TPMRVALAGTFHYYSCERAKKAMG [NSDHL], the protein stability index worked out at 2.48 ± 0.5 under setting [1] and 2.38 ± 0.16 under setting [2].

With TPPLKNVRKKRFRKTQKKVPDVKE [TAF7L], the protein stability index under setting [1] is 4.84 ± 0.37 and the protein stability index under setting [2] turned out to be 4.73 ± 0.22.

Take TPYVRWNYVAKNFAQALGCVLYAC [SOAT2]: the protein stability index is 2.7 ± 0.84 under setting [1] and 2.41 ± 0.34 under setting [2].

Consider TSAAALSPMSAATLGGLNPSPSEV [SMTNL2], for which the protein stability index is, setting by setting: under setting [1], 4.61 ± 0.21; under setting [2], 4.62 ± 0.31.

Consider TSDLGTTDVQKKKLVDAIVSGDTS [RIPK4], for which the protein stability index runs as follows: under setting [1], 4.97 ± 0.21; under setting [2], 5.09 ± 0.12.

Regarding TSPWSECTKTCGVGVRMRDVKCYQ [ADAMTSL2], the protein stability index amounted to 2.81 ± 0.21 under setting [1] and 2.44 ± 0.38 under setting [2].

For TSTKTDSEEGSWAQTLAYGDMNHE [PPFIA4], the protein stability index under setting [2] was 4.66 ± 0.54.

With TTSPNVLWPTPGHLSPLVVHRQLS [ESR2], the protein stability index is, setting by setting: under setting [1], 2.85 ± 0.29; under setting [2], 2.72 ± 0.41.

For TVKFANNPSQKTGQALLTHLYQSS [ELAVL3], the protein stability index was determined as 3.01 ± 0.22 under setting [1] and 3.03 ± 0.38 under setting [2].

Regarding TVQSRPRIDGKLDSPSRSPSKVEV [C2CD2L], the protein stability index is, setting by setting: under setting [1], 4.78 ± 0.21; under setting [2], 4.65 ± 0.37.

Turning to TWRHRETLIIAVLVSASIANLWLW [FATE1], the protein stability index reads like this: under setting [1], 3.2 ± 0.37; under setting [2], 2.77 ± 0.26.

TYEPFCKVPVITSSKEEQKLIATS [KCTD10]: the protein stability index under setting [1] came to 4.27 ± 0.2 and the protein stability index under setting [2] stood at 4.16 ± 0.37.

Regarding TYVSPPGNEEEESKIFTTLDPASL [DDIT3], the protein stability index turned out to be 4.91 ± 0.26 under setting [1] and 5.08 ± 0.065 under setting [2].

Turning to VAEKVVVITKHNDDEQYAWESSAG [HSP90AB1], the protein stability index was 4.53 ± 0.11 under setting [1] and 4.34 ± 0.29 under setting [2].

For VAHVKHLSASQKALKEKEKASWSS [COX4I1], the protein stability index by setting is: under setting [1], 3.57 ± 0.4; under setting [2], 3.83 ± 0.34.

With VCKGLPQHEEICLGLFTLILTEPA [INTS3], the protein stability index turned out to be 2.53 ± 0.47 under setting [1] and 2.5 ± 0.48 under setting [2].

For the sequence VDFSLSGRLLFAGYNDYTINVWDV [GNB5], the protein stability index by setting is: under setting [1], 3.23 ± 0.53; under setting [2], 2.58 ± 0.61.

Take VERKRLRNRLAATKCRKRKLERIA [JUNB]: the protein stability index came out at 4.07 ± 0.42 under setting [1] and 4.2 ± 0.34 under setting [2].

For the sequence VETARSHQRSSSESYTQSFQSRKP [PI4K2A], the protein stability index is, setting by setting: under setting [1], 5 ± 0.33; under setting [2], 5.04 ± 0.29.

As to VFKQAKDKVSDGVTKSPEKRSSLP [MAP2], the protein stability index is, setting by setting: under setting [1], 4.92 ± 0.16; under setting [2], 4.93 ± 0.099.

With VFLIIYYLDPSVLSGVSCFVMFLC [ARL6IP1], the protein stability index worked out at 2.64 ± 0.29 under setting [1] and 2.91 ± 0.91 under setting [2].

For VFYCDPCRLRCHPPRGPLAKHRLV [TRIM9], the protein stability index by setting is: under setting [1], 2.19 ± 0.34; under setting [2], 2.36 ± 0.29.

Take VGALLVYDIAKHLTYENVERWLKE [RAB11A]: the protein stability index was determined as 2.54 ± 0.32 under setting [1] and 2.32 ± 0.54 under setting [2].

Consider VGYTTLVGNNHESWGWDLGRNRLY [SPSB1], for which the protein stability index stood at 2.26 ± 0.35 under setting [1] and 2.12 ± 0.25 under setting [2].

In the case of VIDGATALWCAAGAGHFEVVKLLV [FEM1B], the protein stability index stood at 2.49 ± 0.89 under setting [1] and 2.36 ± 0.35 under setting [2].
